The source of these data is article PMC2064341 (The Journal of Cell Biology, 2006).

The assay has as its target T1, 6-His-tagged RLIP76ΔRBD (human, UniProt Q15311 1-392).
T1 sequence: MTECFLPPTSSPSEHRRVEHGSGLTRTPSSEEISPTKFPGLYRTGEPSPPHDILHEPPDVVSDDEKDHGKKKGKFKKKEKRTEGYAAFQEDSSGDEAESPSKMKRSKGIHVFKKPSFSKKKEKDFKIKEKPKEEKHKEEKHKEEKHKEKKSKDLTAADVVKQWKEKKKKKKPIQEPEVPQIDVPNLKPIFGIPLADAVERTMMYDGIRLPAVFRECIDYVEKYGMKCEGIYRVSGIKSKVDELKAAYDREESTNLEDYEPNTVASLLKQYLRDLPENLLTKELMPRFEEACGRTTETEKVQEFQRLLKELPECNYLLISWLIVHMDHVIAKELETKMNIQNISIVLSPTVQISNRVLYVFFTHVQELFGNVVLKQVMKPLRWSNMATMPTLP
The experiment in a line: pull-down.

B1: GST–R-Ras(wt) (natural protein, human, UniProt P10301 1-218, looked up)
chain: MSSGAASGTGRGRPRGGGPGPGDPPPSETHKLVVVGGGGVGKSALTIQFIQSYFVSDYDPTIEDSYTKICSVDGIPARLDILDTAGQEEFGAMREQYMRAGHGFLLVFAINDRQSFNEVGKLFTQILRVKDRDDFPVVLVGNKADLESQRQVPRSEASAFGASHHVAYFEASAKLRLNVDEAFEQLVRAVRKYQEQELPPSPPSAPRKKGGGCPCVLL
As to B1, the binding result is listed as “binds”.
